Results from paper doi:10.1101/2020.05.07.057075 (bioRxiv, 2020).
Where “and” joins values, the source holds several entries; their conditions need not be identical. Equal entries are not always repeated.

B1: NPM(225-294) construct, C-terminal globular domain (domain or fragment)
chain: QESFKKQEKTPKTPKGPSSVEDIKAKMQASIEKGGSLPKVEAKFINYVKNCFRMTDQEAIQDLWQWRKSL
B2: NPM oligomerization domain NPM(1-130), His-tagged (domain or fragment)
chain: MEDSMDMDMSPLRPQNYLFGCELKADKDYHFKVDNDENEHQLSLRTVSLGAGAKDELHIVEAEAMNYEGSPIKVTLATLKMSVQPTVSLGGFEITPPVVLRLKCGSGPVHISGQHLVAVEEDAESEDEEE
B3: cytochrome c (Cc), recombinant, purified (natural protein)
chain: not shown
modifications: heme group

What was measured:
[1] = target: T1, full-length nucleophosmin NPM(1-294), recombinant (UniProt P06748 1-294); assay: ITC
[2] = target: B3; assay: ITC
SDS-PAGE = target: the molecule itself; assay: SDS-PAGE
[3] = target: NPM oligomerization domain core NPM(9-122) (UniProt P06748 9-122); assay: ITC
[4] = target: NPM(123-294) construct without the oligomerization domain (UniProt P06748 123-294); assay: ITC
[5] = target: T1, full-length nucleophosmin NPM(1-294), …; assay: negative-stain electron microscopy with 3D reconstruction

T1 sequence (P06748 whole entry): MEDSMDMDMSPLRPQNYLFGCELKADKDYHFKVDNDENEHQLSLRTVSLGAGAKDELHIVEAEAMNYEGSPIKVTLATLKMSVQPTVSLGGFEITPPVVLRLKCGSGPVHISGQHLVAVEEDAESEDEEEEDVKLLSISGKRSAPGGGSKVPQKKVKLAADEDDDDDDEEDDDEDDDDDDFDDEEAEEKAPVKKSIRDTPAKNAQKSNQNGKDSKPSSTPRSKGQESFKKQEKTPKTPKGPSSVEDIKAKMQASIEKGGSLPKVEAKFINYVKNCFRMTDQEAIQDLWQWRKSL

MGRRFLVTVRIQRAGRPLQERVFLVKFVRSRRPRTAS [p19ARF(1-37) domain]
Kd [1]: 0.28 µM
stoichiometry N [1]: 5.6

B1
Kd [2]: ~200 µM

B2
stoichiometry N (SDS-PAGE): 5

B3
fold decrease of affinity (by KD) upon addition of 0.1 M KCl [1]: 12 fold
stoichiometry N [1]: 1 Cc:NPM and 2 Cc:NPM
fold decrease of affinity (by KD) upon addition of 0.1 M KCl [3]: 3 fold
stoichiometry N [3]: 2 Cc:NPM and 1 Cc:NPM
Kd [4]: 13 µM
stoichiometry N [5]: 1 Cc per NPM pentamer
